Data from paper PMC8000399.

Target: adzuki bean (Vigna angularis) β-vignin protein (Vigna angularis (adzuki bean))
Experiment: SEC; gel molecular sieving on a Sephadex G-200 column (50 cm x 2.5 cm) under native condition, 0.58 mL/min, room temperature; calibrated with standard proteins; apparent molecular size compared with the subunits' Mr from SDS-PAGE

adzuki bean (Vigna angularis) β-vignin protein (natural protein)
stoichiometry N: 3
